Laboratory results as given in patent US12037419B2 (The Feinstein Institutes for Medical Research, priority 2016, dated 2024).
Each block holds one molecule with its values, some of them ahead of it.

Assays:
RAGE = molecular target: T1, RAGE (Homo sapiens, UniProt Q15109); assay: SPR assay of C1q and RAGE binding; settings: data not shown
T1 construct: purchased R&D Systems
Method: Surface Plasmon Resonance analysis (SPR): For real-time binding interaction studies, a BIAcore T200 instrument (GE Healthcare) was used. […] A 1:1 mixture of N-hydroxysuccinimide and N-ethyl-N-(dimethyaminopropyl) carbodiimide was used to activate 2 flow-cells of the CMS chip. […] The analytes were diluted in 1×PBS+0.01% (vol/vol) tween-20 buffer. The analytes were sequentially injected at a flow rate of 30 μl/min for 60 s at 25° C. The KD was dertermined using the BIAcore evaluation software 2.0 (GE Healthcare) supposing a 1:1 binding ratio.

human monocytes [1] = assay: Induction of anti-inflammatory molecules / M2-like phenotype (Mer, PDL-1, IL-10, CD163) in monocytes; assay type: cell-based; settings: together with HMGB1 3 μg/ml, C1q 25 μg/ml or C1q tail 53 μg/ml, 24 h
Method: (§1) Monocyte isolation and stimulation: Human PBMCs were obtained following institutional guidelines of the Feinstein Institute for Medical Research (Feinstein) and isolated from blood of healthy donors by density centrifugation (New York Blood Bank). Monocytes were negatively enriched using a human monocyte enrichment kit (Stem Cell Technology). Purity of monocytes (≥90% CD11b+CD14+LAIR-1+) was determined by flow cytometry. […] Splenic murine monocytes from wild type mice, RAGE deficient or LAIR-1 conditional knockout mice were isolated using EasySep mouse monocyte enrichment kit (Stem Cell Technology). C57BL/6 mice, Lysozyme2-Cre transgenic mice were purchased from Jackson Laboratory. Myeloid specific LAIR-1 conditional knockout mice (Lysozyme2-Cre×LAIR fl/fl) were bred and maintained in our facility (Feinstein) under specific pathogen-free conditions. RAGE deficient mice (Department of Medicine, Karolinska Institute Stockholm, Sweden) were maintained at Feinstein. Eight-to ten weeks old male mice were used for experiments. All animal procedures were approved by the Feinstein Institutional Animal Care and Use Committee.
RT-PCR analysis and primers: Total RNA was extracted from cells (1-2×10^6 cells per sample) with an RNeasy kit (Qiagen, Venlo, Limburg, Netherlands) and cDNA was generated using an iScript cDNA synthesis kit (Bio-Rad laboratories). […] The relative induction was calculated by 2-ΔΔCt.
(§2) Cytokine analysis: Cytokine levels were measured using a Human Proinflammatory 7-plex assay following the manufacturer's protocols (Meso Scale Discovery (MSD). MSD plates were analyzed on the MS2400 imager (MSD). All standards and samples were run in duplicates.
Flow cytometry: Cells were suspended in staining buffer containing 2% BSA and incubated with Fc block (Miltenyi Biotec) for 15 min on ice. […] Events were acquired using either an LSRII or Fortessa cell analyzer (BD Biosciences), and data were analyzed using FlowJo (Tree star).

human monocytes [2] = assay: HMGB1-induced monocyte activation (cytokine mRNA by q-PCR, protein by ELISA/MSD); assay type: cell-based; settings: HMGB1 alone
Method: as §1
RT-PCR analysis and primers: Total RNA was extracted from cells (1-2×10^6 cells per sample) with an RNeasy kit (Qiagen, Venlo, Limburg, Netherlands) and cDNA was generated using an iScript cDNA synthesis kit (Bio-Rad laboratories). Real Time-PCR was performed on a Light Cycler 480 II (Roche) using Light Cycler 480 master mix with primers (Applied Biosystems) for IFNα1 (Hs00256882), IFNα7 (mm02525960), MX1 (Hs00182073, mm01217998), IL-6 (Hs00985639, mm99999064), TNFα (Hs00174128, mm00443258), IL-12a (Hs00168405), Mer (Hs01031973), PDL-1 (Hs01125301), IL-10 (Hs00961622), CD163 (Hs00174705), HPRT1 (Hs99999909, mm01545399) and Polr2a (Hs00172187). The genes of interest were normalized to the expression of house keeping genes and were compared to a control condition with no treatment. The relative induction was calculated by 2-ΔΔCt.
Transfection: For RNA interference assays, human monocytes were transfected using an Amaxa Nucleofector kit (Lonza) with a greater than 40% transfection efficiency. siRNAs were obtained from Qiagen. The target sequence of human LAIR1-11 is […] (SEQ ID NO:9). The efficiency of knockdown was determined by flow cytometry and q-PCR.
as §2

human monocytes [3] = assay: SeaHorse cellular flux assay (OCR, ECAR); assay type: cell-based; settings: HMGB1 3 μg/ml alone, 24 h
Method: Cell metabolism analysis using SeaHorse Cellular Flux assay. […] One hour prior to measurement, culture medium was exchanged for assay medium (unbuffered DMEM (Sigma), supplemented with 10 mM Glucose, 1 mM Pyruvate and 2 mM Glutamine for mitochondrial assays, or with 2 mM Glutamine alone for glycolytic assays. Reagents were injected during the measurement to achieve final concentrations of oligomycin (1 μM), carbonyl cyanide p-(trifluoromethoxy) phenylhydrazone (FCCP) ([…]), Rotenone/antimycin A (0.5 μM). Glucose (10 mM), and 2-Deoxy-D glucose (50 mM). Oxygen consumption rate (OCR) and Extracellular acidification rate (ECAR) values were measured using a SeaHorse XfP instrument (SeaHorse bioscience). Measured values were normalized to the number of live cells present in each well as determined by a trypan blue staining by the end of each run. For OCR/ECAR ratio calculations, an average of the last two basal readings was used for both OCR and ECAR.

human monocytes [4] = assay: Monocyte to DC differentiation with GM-CSF and IL-4 (flow cytometry); assay type: cell-based; settings: HMGB1 alone 24 h, then GM-CSF and IL-4
[5] = test system: allogeneic primary human CD4 T cells; assay: Allogeneic mixed lymphocyte reaction; assay type: cell-based; settings: HMGB1 3 μg/ml alone
Method: Allogeneic CD4 T lymphocytes were isolated from blood using the Naïve CD4+ T cell isolation kit II (Miltenyi Biotec.) following the manufacturer's protocol. Cells were analyzed by flow cytometry (>90%). T cells were labeled with 5 μM Cell Trace Violet cell proliferation kit (Thermo Fisher Scientific), added to mono/macrophages at a density of 2×10^5 cells/well (a 1:2 ratio) in the presence of 1 μg/ml anti-CD3 (OKT3, eBioscience). Control cultures contained medium only or T cells or mono/macrophages alone. After 4 days, cells were stained with FITC-anti-CD4, PerCPCy 5.5-CD14, PE-LAIR-1 and fixable viability dyes (FVD, eBioscience) for 20 min at room temperature and subsequently washed and fixed. Live cells (FVD-negative cells) were then gated on CD4-positive, and cell trace violet was assessed by flow cytometry on a BD LSR II (BD Biosciences). Cell proliferation was analyzed as described (51). The % divided cells was defined as the probability that a cell has divided at least once from the original population. The division index was defined as the average number of cell divisions that a cell in the original population has undergone.

murine macrophages = assay: RvD2 and LTB4 in murine macrophages after HMGB1 in vivo (FIG. 22); design: species or system mouse
NZB/W mice = assay: NZB/W lupus mice in vivo (FIG. 23-25); design: species or system mouse

T1 sequence (Q15109 23-342 limits assumed): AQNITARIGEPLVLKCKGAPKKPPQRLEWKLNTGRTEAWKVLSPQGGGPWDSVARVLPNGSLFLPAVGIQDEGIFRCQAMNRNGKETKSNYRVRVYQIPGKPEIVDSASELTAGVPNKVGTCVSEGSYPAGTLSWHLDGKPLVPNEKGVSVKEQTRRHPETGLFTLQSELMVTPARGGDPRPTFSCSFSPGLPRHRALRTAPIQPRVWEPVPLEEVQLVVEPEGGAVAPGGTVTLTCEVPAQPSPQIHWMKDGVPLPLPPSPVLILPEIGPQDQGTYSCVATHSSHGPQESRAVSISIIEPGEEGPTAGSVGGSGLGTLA

binding to RAGE (RAGE): No binding
Molecule: C1q tail: C1q tail purified from whole C1q; collagen-like tail
transcription and protein expression of anti-inflammatory factors (Mer, PDL-1, IL-10, CD163) (human monocytes [1]): did not mediate similar effects

B1: HMGB1: Recombinant HMGB1 (Calmodulin Binding Protein Epitope, Cbp tagged) (protein)
chain: MGKGDPKKPRGKMSSYAFFVQTCREEHKKKHPDASVNFSEFSKKCSERWKTMSAKEKGKFEDMAKADKARYEREMKTYIPPKGETKKKFKDPNAPKRPPSAFFLFCSEYRPKIKGEHPGLSIGDVAKKLGEMWNNTAADDKQPYEKKAAKLKEKYEKDIAAYRAKGKPDAAKKGVVKAEKSKKKKEEEEDEEDEEDEEEEEDEEDEDEEEDDDDE
modifications: left off: small tags and cut ends
transcription and secretion of type 1 IFN, IFN-inducible genes and proinflammatory cytokines (human monocytes [2]): dramatically increased
OCR/ECAR ratio (human monocytes [3]): significantly decreased
baseline oxidative phosphorylation (OCR) and glycolytic metabolism (ECAR) (human monocytes [3]): enhanced
monocyte to DC differentiation after pre-treatment with HMGB1 (human monocytes [4]): monocyte to DC differentiation occurred
stimulation of T cells by monocytes exposed to HMGB1 [5]: induced the strongest mixed lymphocyte reaction

B2: KLKEKYEKDIAAYRAKGKPDAAKKGVVKAEKSKKGGGGSGGGGSGGGGSKGEQ GEPGAPGI (peptide)
chain: KLKEKYEKDIAAYRAKGKPDAAKKGVVKAEKSKKGGGGSGGGGSGGGGSKGEQGEPGAPGI
modifications: Artificial based on human
notes: HMGB1 B box-linker-C1q peptide
LTB4 induction by HMGB1 in murine macrophages (murine macrophages): abolishes LTB4 induction
RvD2 in murine macrophages (murine macrophages; HMGB1 challenge): induces RvD2
anti-DNA IgM/IgG-producing splenocytes (NZB/W mice; NZB/W mice in vivo): decreases anti-DNA IgM/IgG-producing splenocytes
inflammatory and anti-inflammatory markers in splenocytes (NZB/W mice; NZB/W mice in vivo): decreases inflammatory and increases anti-inflammatory markers
progression of serum anti-dsDNA antibodies (NZB/W mice; NZB/W mice in vivo): slows the progression
kidney IgG deposition (NZB/W mice; NZB/W mice, staining data not shown): decreases kidney IgG deposition
